Experimental data reported in patent publication US7127357 (SALK INSTITUTE FOR BIOLOGICAL STUDIES, dated 2006).
Non-standard residues stand in square brackets, D forms with d. No end group written: not given here. pT = C[C@@H](OP(=O)(O)O)[C@H](N)C(=O)O; pS = N[C@@H](COP(=O)(O)O)C(=O)O

B1: PPApTPP (Myt1-T412), rhodamine-labeled (peptide)
peptide: PPA[pT]PP
modifications: also: tetramethylrhodamine label on an amine
notes: Six-residue peptide derived from human Myt1
B2: PPGpSPP (Myt1-S416), rhodamine-labeled (peptide)
peptide: PPG[pS]PP
modifications: also: tetramethylrhodamine label on an amine
notes: as for B1
B3: STSpTPR (Myt1-T455), rhodamine-labeled (peptide)
peptide: STS[pT]PR
modifications: also: tetramethylrhodamine label on an amine
notes: as for B1
B4: VPRpTPV (Cdc25c-T48), rhodamine-labeled (peptide)
peptide: VPR[pT]PV
modifications: also: tetramethylrhodamine label on an amine
notes: Six-residue peptide derived from human Cdc25c

These binders were tested against T1, isolated PPIase domain of human Pin1 (human, UniProt Q13526 50-163) (assay: fluorescence anisotropy, rhodamine-labeled peptide).
T1 construct: range 50-163; also called Pin1 PPIase domain
T1 sequence (Q13526 50-163 limits assumed): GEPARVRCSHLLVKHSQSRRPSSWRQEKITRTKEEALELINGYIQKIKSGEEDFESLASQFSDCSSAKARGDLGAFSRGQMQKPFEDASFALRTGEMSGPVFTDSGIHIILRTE
Protocol: Binding Analysis. […] Lyophilized peptides were dissolved in 25 mM HEPES-Na^+ (pH 7.5), 100 mM NaCl, 1 mM DTT and stored for short periods of time at −20° C. Peptides were labeled with the amine reactive reagent tetramethylrhodamine-5-(and-6)-isothiocyanate (Molecular Probes, Inc. Eugene, Oreg.) using a 2:1 molar ratio of rhodamine to peptide in 0.1 M sodium bicarbonate (pH 9.0) at ambient temperature for 10 hr. Fluorescence data were collected on a PTI Alphascan spectrofluorimeter (Photon Technology Instruments, Santa Clara, Calif.).
B1: no binding. B2: no binding. B3: no binding. B4: no binding.
